Results: patent publication US20240336672A1 (INSTITUT PASTEUR, published 2024)
Where a chain is given by its changes, count along the chain named.

B1: COV2-2196 (parental IgG1 version) (antibody, V domains shown)
VH: QMQLVQSGPEVKKPGTSVKVSCKASGFTFMSSAVQWVRQARGQRLEWIGWIVIGSGNTNYAQKFQERVTITRDMSTSTAYMELSSLRSEDTAVYYCAAPYCSSISCNDGFDIWGQGTMVTVSS
VL: not shown
B2: Cv2.5179 (recombinant human IgG1) (antibody, V domains shown)
VH: B1 VH with M2V, M30T, I53V, Y100H, I104T, N107Y, G109A
VL: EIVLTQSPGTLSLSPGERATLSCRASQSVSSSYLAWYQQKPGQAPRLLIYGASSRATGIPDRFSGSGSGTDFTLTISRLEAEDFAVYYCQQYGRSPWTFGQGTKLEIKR
notes: also called Cv2.5179 IgG
B3: TIX (antibody, V domains shown)
VH: B1 VH
VL: not shown
notes: also called Tixagevimab
B4: ADG-2 (antibody, V domains shown)
VH: EVQLVESGGGLVKPGGSLRLSCAASGFTFSSYYMNWVRQAPGKGLEWVSSISEDGYSTYYPDSLKGRFTISRDSAKNSLYLQMNSLRADDTAVYYCARDFSGHTAWAGTGFEYWGQGTLVTVSS
VL: QSVLTQPPSVSGAPGQRITISCTGSSSNIGAGYDVHWYQQLPGTAPKLLIYGSSSRNSGVPDRFSGSKSGTSASLAITGLQAEDEADYYCQSYDSSLSVLYTFGTGTKVTVL
B5: Adintrevimab (antibody, V domains shown)
VH: B4 VH
VL: B4 VL
B6: Cv2.3235 (recombinant human IgG1) (antibody, V domains shown)
VH: EVQLVESGGGLIQPGGSLRLSCAASGFTVSRNYMSWVRQAPGKGLEWVSVIYSGGSTFYADSVKGRFTISRDNSKNTLYLQMNSLRAEDTAVYYCARDGDYYGMDVWGQGTTVTVSS
VL: DIQMTQSPSFLSASVGDRVTITCRASQGISSFLAWYQQKPGKAPKLLIYGASTLQSGVTSRFSGSGSGTEFTLTISSLQPEDFATYYCQRLDSYPPITFGQGTRLEIKR
B7: Cv2.5213 (recombinant human IgG1) (antibody, V domains shown)
VH: B6 VH with R31S, V50L, F58Y, G99L, D100N, T111A
VL: DIQMTQSPSSLSASVGDRVTITCRASQGISSYLAWYQQKPGKAPKLLIYAASTLQSGVPSRFSGSGSGTDFTLTISSLQPEDFATYYCQQLDSYSPFTFGPGTKVDIKR
B8: Cv2.3194 (recombinant human IgG1) (antibody, V domains shown)
VH: B6 VH with F27I, S30T, R31S, S53P, G99L, D100V, Y101V
VL: EIVLTQSPGTLSLSPGERATLSCRASQSVSSSYLAWYQQKPGQAPRLLIYGASSRATGIPGRFSGSGSGTDFTLTISRLEPEDFAIYYCQQGVTFGGGTKVEIKR
B9: Cv2.1353 (recombinant human IgG1) (antibody, V domains shown)
VH: EVQLVESGGGLVQPGGSLRLSCAASGVTVSSNYMNWVRQAPGKGLEWVSVIYSGGSTFYADSVKGRFIISRDNSKNTLYLQMNSLKTEDTAVYYCARDLGPMGFDIWGQGTMVTVSS
VL: B7 VL with S10F, D70E, D92N, Y94D, S95P, F97V
B10: Cv2.1169 (recombinant human IgG1) (antibody)
heavy: QVQLVQSGPEVKKPGTSVKVSCKASGFTFTTSAVQWVRQARGQRLEWIGWIVVGSGNTNYAQKFQERVTITRDMSTTTAYMELSSLRSEDTAVYYCAAPYCSGGTCLDGFDIWGQGTMVTVSSASTKGPSVFPLAPSSKSTSGGTAALGCLVKDYFPEPVTVSWNSGALTSGVHTFPAVLQSSGLYSLSSVVTVPSSSLGTQTYICNVNHKPSNTKVDKKVEPKSCDKTHTCPPCPAPELLGGPSVFLFPPKPKDTLMISRTPEVTCVVVDVSHEDPEVKFNWYVDGVEVHNAKTKPREEQYNSTYRVVSVLTVLHQDWLNGKEYKCKVSNKALPAPIEKTISKAKQPREPQVYTLPPSRDELTKNQVSLTCLVKGFYPSDIAVEWESNGQPENNYKTTPPVLDSDGSFFLYSKLTVDKSRWQQGNVFSCSVMHEALHNHYTQKSLSLSPGK
light: not shown
notes: also called Cv2.1169 IgG

What was measured:
[1] = biological target: T1, SARS-CoV-2 S1 domain, Wuhan (SARS-CoV-2, UniProt P0DTC2 16-681); assay: ELISA; parameters: unit not given beside the values
[2] = biological target: SARS-CoV-2 RBD domain, Wuhan (SARS-CoV-2); assay: RBD-ACE2 competition ELISA
[3] = biological target: SARS-CoV-2 RBD domain, Wuhan (SARS-CoV-2); assay: RBD-ACE2 competition ELISA; parameters: unit not given beside the values
[4] = biological target: SARS-CoV-2 RBD domain, Wuhan (SARS-CoV-2); assay: ELISA; parameters: unit not given beside the values
[5] = biological target: T1, SARS-CoV-2 S1 domain, Wuhan; assay: ELISA
[6] = biological target: T1, SARS-CoV-2 S1 domain, Wuhan; assay: SPR (Biacore), antibody immobilised
[7] = biological target: T2, SARS-CoV-2 spike, Wuhan strain, on virus or pseudotyped particles (SARS-CoV-2, UniProt P0DTC2 14-1273); assay: cell-based or functional assay
[8] = biological target: T1, SARS-CoV-2 S1 domain, Wuhan; assay: ELISA, coated antigen; also: test concentration or dose not given here
[9] = biological target: T1, SARS-CoV-2 S1 domain, Wuhan; assay: SPR (Biacore), IgG immobilized, viral protein as analyte
[10] = biological target: T1, SARS-CoV-2 S1 domain, Wuhan; assay: SPR (Biacore), antibody coupled to CM5 chip, viral protein as analyte
[11] = biological target: T2, SARS-CoV-2 spike, Wuhan strain, on …; assay: cell-based or functional assay; remark: listed apart in the source
For OD405nm in this document: test concentration or dose not given here.
For PseudoNEUT (%) in this document: test concentration or dose not given here.
For S-FuseNEUT (%) in this document: test concentration or dose not given here.

Row | Binder | OD405nm [5] | Kd [6] [nM] | PseudoNEUT (%) [7] [%] | S-FuseNEUT (%) [7] [%] | ELISA OD [8] [OD] | other results
1 | B1 | – | – | – | – | – | AUC [1]: 3
2 | B2 | – | – | – | – | – | IC50 (read off the curve) [2]: ~600 ng/mL; AUC (Blocking) [3]: 103; AUC (Binding) [4]: 11
3 | B3 | 3.3 | – | – | – | – | –
4 | B4 | – | – | – | – | – | AUC [1]: 3
5 | B5 | 3.3 | – | – | – | – | –
6 | B6 | – | 18.9 | 100 | 100 | 3.9 | –
7 | B7 | – | 520 | 100 | 96 | 3.5 | –
8 | B8 | 3.4 | – | 100 | 100 | 3.7 | Kd [9]: 1.2 nM; Kd [10]: < 0.001 nM; Pseudoneutralization IC50 [11]: 18.9 ng/mL; Pseudoneutralization IC90 [11]: 241 ng/mL; S-Fuse neutralization IC50 [11]: 3 ng/mL; S-Fuse neutralization IC90 [11]: 9.8 ng/mL
9 | B9 | – | 6 | 100 | 100 | 3.5 | –
10 | B10 | 3.3 | – | 100 | 95 | 3.5 | Kd [9]: 1.44 nM; koff [9]: 0.000354 s⁻¹; kon [9]: 246000 M⁻¹ s⁻¹; Kd [10]: < 0.001 nM; Pseudoneutralization IC50 [11]: 3 ng/mL; Pseudoneutralization IC90 [11]: 12.4 ng/mL; S-Fuse neutralization IC50 [11]: 1.5 ng/mL; S-Fuse neutralization IC90 [11]: 3.5 ng/mL
